Assay results as given in paper PMC7884448.

How the values were obtained:
[1] = SDD-AGE of MAVS aggregates, HEK293; details: glycan lost; control: wild type
[2] = cycloheximide chase, HEK293 and A549; details: glycan gained; control: without Thiamet-G

| Protein | oligomerisation [1] | degradation_or_half_life [2] |
| --- | --- | --- |
| mitochondrial antiviral signaling protein (MAVS): S366A (protein) parent chain: MPFAEDKTYKYICRNFSNFCNVDVVEILPYLPCLTARDQDRLRATCTLSGNRDTLWHLFNTLQRRPGWVEYFIAALRGCELVDLADEVASVYQSYQPRTSDRPPDPLEPPSLPAERPGPPTPAAAHSIPYNSCREKEPSYPMPVQETQAPESPGENSEQALQTLSPRAIPRNPDGGPLESSSDLAALSPLTSSGHQEQDTELGSTHTAGATSSLTPSRGPVSPSVSFQPLARSTPRASRLPGPTGSVVSTGTSFSSSSPGLASAGAAEGKQGAESDQAEPIICSSGAEAPANSLPSKVPTTLMPVNTVALKVPANPASVSTVPSKLPTSSKPPGAVPSNALTNPAPSKLPINSTRAGMVPSKVPTSMVLTKVSASTVPTDGSSRNEETPAAPTPAGATGGSSAWLDSSSENRGLGSELSKPGVLASQVDSPFSGCFEDLAISASTSLGMGPCHGPEENEYKSEGTFGIHVAENPSIQLLEGNPGPPADPDGGPRPQADRKFQEREVPCHRPSPGALWLQVAVTGVLVVTLLVVLYRRRLH | no change | – |
| mitochondrial antiviral signaling protein (MAVS): Thiamet-G (protein) parent chain: MPFAEDKTYKYICRNFSNFCNVDVVEILPYLPCLTARDQDRLRATCTLSGNRDTLWHLFNTLQRRPGWVEYFIAALRGCELVDLADEVASVYQSYQPRTSDRPPDPLEPPSLPAERPGPPTPAAAHSIPYNSCREKEPSYPMPVQETQAPESPGENSEQALQTLSPRAIPRNPDGGPLESSSDLAALSPLTSSGHQEQDTELGSTHTAGATSSLTPSRGPVSPSVSFQPLARSTPRASRLPGPTGSVVSTGTSFSSSSPGLASAGAAEGKQGAESDQAEPIICSSGAEAPANSLPSKVPTTLMPVNTVALKVPANPASVSTVPSKLPTSSKPPGAVPSNALTNPAPSKLPINSTRAGMVPSKVPTSMVLTKVSASTVPTDGSSRNEETPAAPTPAGATGGSSAWLDSSSENRGLGSELSKPGVLASQVDSPFSGCFEDLAISASTSLGMGPCHGPEENEYKSEGTFGIHVAENPSIQLLEGNPGPPADPDGGPRPQADRKFQEREVPCHRPSPGALWLQVAVTGVLVVTLLVVLYRRRLH | – | no change |
